Laboratory results reported in patent publication US20180273587A1 (AILERON THERAPEUTICS, published 2018).
Positions of bridges follow the written chain, without caps; N, C: chain ends. Non-standard residues stand in square brackets, D forms with d. Gly(1-adamantyl) = N[C@H](C(=O)O)C12CC3CC(CC(C3)C1)C2; Phe(4-tBu) = CC(C)(C)c1ccc(C[C@H](N)C(=O)O)cc1; Igl = N[C@H](C(=O)O)C1Cc2ccccc2C1; hCha = N[C@@H](CCC1CCCCC1)C(=O)O; hPhe = N[C@@H](CCc1ccccc1)C(=O)O; R8 = C=CCCCCCC[C@@](C)(N)C(=O)O; Cha = N[C@@H](CC1CCCCC1)C(=O)O; S5 = C=CCCC[C@](C)(N)C(=O)O

B1: SEQ ID NO: 1656 (peptide)
peptide: IWIAQALXAIGDQFNAYYA
modifications: not fully specified; Ac- at N-terminus; -NH2 at C-terminus; $r8 at 9 and $ at 16 joined by all-carbon crosslinker; Cit (citrulline) at 8
B2: SEQ ID NO: 1635 (peptide)
peptide: Ac-IAQALR[R8]IGDAFN[S5]YYA-NH2
modifications: staple 7-14
SMILES: CC[C@H](C)[C@H](NC(C)=O)C(=O)N[C@@H](C)C(=O)N[C@@H](CCC(N)=O)C(=O)N[C@@H](C)C(=O)N[C@@H](CC(C)C)C(=O)N[C@@H](CCCNC(=N)N)C(=O)N[C@]1(C)CCCCCCC=CCCC[C@@](C)(C(=O)N[C@@H](Cc2ccc(O)cc2)C(=O)N[C@@H](Cc2ccc(O)cc2)C(=O)N[C@@H](C)C(N)=O)NC(=O)[C@H](CC(N)=O)NC(=O)[C@H](Cc2ccccc2)NC(=O)[C@H](C)NC(=O)[C@H](CC(=O)O)NC(=O)CNC(=O)[C@H]([C@@H](C)CC)NC1=O
notes: also called Ac-IAQALR$r8IGDAFN$YYA-NH2
B3: SEQ ID NO: 1640 (peptide)
peptide: Ac-IAQALR[R8]IGDAFN[S5]AYA-NH2
modifications: staple 7-14
SMILES: CC[C@H](C)[C@H](NC(C)=O)C(=O)N[C@@H](C)C(=O)N[C@@H](CCC(N)=O)C(=O)N[C@@H](C)C(=O)N[C@@H](CC(C)C)C(=O)N[C@@H](CCCNC(=N)N)C(=O)N[C@]1(C)CCCCCCC=CCCC[C@@](C)(C(=O)N[C@@H](C)C(=O)N[C@@H](Cc2ccc(O)cc2)C(=O)N[C@@H](C)C(N)=O)NC(=O)[C@H](CC(N)=O)NC(=O)[C@H](Cc2ccccc2)NC(=O)[C@H](C)NC(=O)[C@H](CC(=O)O)NC(=O)CNC(=O)[C@H]([C@@H](C)CC)NC1=O
notes: also called Ac-IAQALR$r8IGDAFN$AYA-NH2
B4: SEQ ID NO: 1638 (peptide)
peptide: Ac-IAQALR[R8]IADAFN[S5]YYA-NH2
modifications: staple 7-14
SMILES: CC[C@H](C)[C@H](NC(C)=O)C(=O)N[C@@H](C)C(=O)N[C@@H](CCC(N)=O)C(=O)N[C@@H](C)C(=O)N[C@@H](CC(C)C)C(=O)N[C@@H](CCCNC(=N)N)C(=O)N[C@]1(C)CCCCCCC=CCCC[C@@](C)(C(=O)N[C@@H](Cc2ccc(O)cc2)C(=O)N[C@@H](Cc2ccc(O)cc2)C(=O)N[C@@H](C)C(N)=O)NC(=O)[C@H](CC(N)=O)NC(=O)[C@H](Cc2ccccc2)NC(=O)[C@H](C)NC(=O)[C@H](CC(=O)O)NC(=O)[C@H](C)NC(=O)[C@H]([C@@H](C)CC)NC1=O
notes: also called Ac-IAQALR$r8IADAFN$YYA-NH2
B5: SEQ ID NO: 1636 (peptide)
peptide: Ac-IAAALR[R8]IGDAFN[S5]YYA-NH2
modifications: staple 7-14
SMILES: CC[C@H](C)[C@H](NC(C)=O)C(=O)N[C@@H](C)C(=O)N[C@@H](C)C(=O)N[C@@H](C)C(=O)N[C@@H](CC(C)C)C(=O)N[C@@H](CCCNC(=N)N)C(=O)N[C@]1(C)CCCCCCC=CCCC[C@@](C)(C(=O)N[C@@H](Cc2ccc(O)cc2)C(=O)N[C@@H](Cc2ccc(O)cc2)C(=O)N[C@@H](C)C(N)=O)NC(=O)[C@H](CC(N)=O)NC(=O)[C@H](Cc2ccccc2)NC(=O)[C@H](C)NC(=O)[C@H](CC(=O)O)NC(=O)CNC(=O)[C@H]([C@@H](C)CC)NC1=O
notes: also called Ac-IAAALR$r8IGDAFN$YYA-NH2
B6: SEQ ID NO: 1631 (peptide)
peptide: Ac-IAQALR[R8]IGDAFA[S5]YYA-NH2
modifications: staple 7-14
SMILES: CC[C@H](C)[C@H](NC(C)=O)C(=O)N[C@@H](C)C(=O)N[C@@H](CCC(N)=O)C(=O)N[C@@H](C)C(=O)N[C@@H](CC(C)C)C(=O)N[C@@H](CCCNC(=N)N)C(=O)N[C@]1(C)CCCCCCC=CCCC[C@@](C)(C(=O)N[C@@H](Cc2ccc(O)cc2)C(=O)N[C@@H](Cc2ccc(O)cc2)C(=O)N[C@@H](C)C(N)=O)NC(=O)[C@H](C)NC(=O)[C@H](Cc2ccccc2)NC(=O)[C@H](C)NC(=O)[C@H](CC(=O)O)NC(=O)CNC(=O)[C@H]([C@@H](C)CC)NC1=O
notes: also called Ac-IAQALR$r8IGDAFA$YYA-NH2
B7: SEQ ID NO: 1673 (peptide)
peptide: Ac-IWIAQALA[R8]IGDAFN[S5]YYA-NH2
modifications: staple 9-16
SMILES: CC[C@H](C)[C@H](NC(C)=O)C(=O)N[C@@H](Cc1c[nH]c2ccccc12)C(=O)N[C@H](C(=O)N[C@@H](C)C(=O)N[C@@H](CCC(N)=O)C(=O)N[C@@H](C)C(=O)N[C@@H](CC(C)C)C(=O)N[C@@H](C)C(=O)N[C@]1(C)CCCCCCC=CCCC[C@@](C)(C(=O)N[C@@H](Cc2ccc(O)cc2)C(=O)N[C@@H](Cc2ccc(O)cc2)C(=O)N[C@@H](C)C(N)=O)NC(=O)[C@H](CC(N)=O)NC(=O)[C@H](Cc2ccccc2)NC(=O)[C@H](C)NC(=O)[C@H](CC(=O)O)NC(=O)CNC(=O)[C@H]([C@@H](C)CC)NC1=O)[C@@H](C)CC
B8: SEQ ID NO: 1693 (peptide)
peptide: Ac-IWIAQA[Igl]R[R8]IGDAFN[S5]YYA-NH2
modifications: staple 9-16
SMILES: CC[C@H](C)[C@H](NC(C)=O)C(=O)N[C@@H](Cc1c[nH]c2ccccc12)C(=O)N[C@H](C(=O)N[C@@H](C)C(=O)N[C@@H](CCC(N)=O)C(=O)N[C@@H](C)C(=O)N[C@H](C(=O)N[C@@H](CCCNC(=N)N)C(=O)N[C@]1(C)CCCCCCC=CCCC[C@@](C)(C(=O)N[C@@H](Cc2ccc(O)cc2)C(=O)N[C@@H](Cc2ccc(O)cc2)C(=O)N[C@@H](C)C(N)=O)NC(=O)[C@H](CC(N)=O)NC(=O)[C@H](Cc2ccccc2)NC(=O)[C@H](C)NC(=O)[C@H](CC(=O)O)NC(=O)CNC(=O)[C@H]([C@@H](C)CC)NC1=O)C1Cc2ccccc2C1)[C@@H](C)CC
notes: also called Ac-IWIAQAIglR$r8IGDAFN$YYA-NH2
B9: SEQ ID NO: 1684 (peptide)
peptide: Ac-IW[Phe(4-tBu)]AQALR[R8]IGDAFN[S5]YYA-NH2
modifications: staple 9-16
SMILES: CC[C@H](C)[C@H](NC(C)=O)C(=O)N[C@@H](Cc1c[nH]c2ccccc12)C(=O)N[C@@H](Cc1ccc(C(C)(C)C)cc1)C(=O)N[C@@H](C)C(=O)N[C@@H](CCC(N)=O)C(=O)N[C@@H](C)C(=O)N[C@@H](CC(C)C)C(=O)N[C@@H](CCCNC(=N)N)C(=O)N[C@]1(C)CCCCCCC=CCCC[C@@](C)(C(=O)N[C@@H](Cc2ccc(O)cc2)C(=O)N[C@@H](Cc2ccc(O)cc2)C(=O)N[C@@H](C)C(N)=O)NC(=O)[C@H](CC(N)=O)NC(=O)[C@H](Cc2ccccc2)NC(=O)[C@H](C)NC(=O)[C@H](CC(=O)O)NC(=O)CNC(=O)[C@H]([C@@H](C)CC)NC1=O
notes: also called Ac-IWF4tBuAQALR$r8IGDAFN$YYA-NH2
B10: SEQ ID NO: 1687 (peptide)
peptide: Ac-IWIAQA[Cha]R[R8]IGDAFN[S5]YYA-NH2
modifications: staple 9-16
SMILES: CC[C@H](C)[C@H](NC(C)=O)C(=O)N[C@@H](Cc1c[nH]c2ccccc12)C(=O)N[C@H](C(=O)N[C@@H](C)C(=O)N[C@@H](CCC(N)=O)C(=O)N[C@@H](C)C(=O)N[C@@H](CC1CCCCC1)C(=O)N[C@@H](CCCNC(=N)N)C(=O)N[C@]1(C)CCCCCCC=CCCC[C@@](C)(C(=O)N[C@@H](Cc2ccc(O)cc2)C(=O)N[C@@H](Cc2ccc(O)cc2)C(=O)N[C@@H](C)C(N)=O)NC(=O)[C@H](CC(N)=O)NC(=O)[C@H](Cc2ccccc2)NC(=O)[C@H](C)NC(=O)[C@H](CC(=O)O)NC(=O)CNC(=O)[C@H]([C@@H](C)CC)NC1=O)[C@@H](C)CC
notes: also called Ac-IWIAQAChaR$r8IGDAFN$YYA-NH2
B11: SEQ ID NO: 1689 (peptide)
peptide: Ac-IWIAQA[Gly(1-adamantyl)]R[R8]IGDAFN[S5]YYA-NH2
modifications: staple 9-16
SMILES: CC[C@H](C)[C@H](NC(C)=O)C(=O)N[C@@H](Cc1c[nH]c2ccccc12)C(=O)N[C@H](C(=O)N[C@@H](C)C(=O)N[C@@H](CCC(N)=O)C(=O)N[C@@H](C)C(=O)N[C@H](C(=O)N[C@@H](CCCNC(=N)N)C(=O)N[C@]1(C)CCCCCCC=CCCC[C@@](C)(C(=O)N[C@@H](Cc2ccc(O)cc2)C(=O)N[C@@H](Cc2ccc(O)cc2)C(=O)N[C@@H](C)C(N)=O)NC(=O)[C@H](CC(N)=O)NC(=O)[C@H](Cc2ccccc2)NC(=O)[C@H](C)NC(=O)[C@H](CC(=O)O)NC(=O)CNC(=O)[C@H]([C@@H](C)CC)NC1=O)C12CC3CC(CC(C3)C1)C2)[C@@H](C)CC
notes: also called Ac-IWIAQAAdmR$r8IGDAFN$YYA-NH2
B12: SEQ ID NO: 1692 (peptide)
peptide: Ac-IWIAQA[hPhe]R[R8]IGDAFN[S5]YYA-NH2
modifications: staple 9-16
SMILES: CC[C@H](C)[C@H](NC(C)=O)C(=O)N[C@@H](Cc1c[nH]c2ccccc12)C(=O)N[C@H](C(=O)N[C@@H](C)C(=O)N[C@@H](CCC(N)=O)C(=O)N[C@@H](C)C(=O)N[C@@H](CCc1ccccc1)C(=O)N[C@@H](CCCNC(=N)N)C(=O)N[C@]1(C)CCCCCCC=CCCC[C@@](C)(C(=O)N[C@@H](Cc2ccc(O)cc2)C(=O)N[C@@H](Cc2ccc(O)cc2)C(=O)N[C@@H](C)C(N)=O)NC(=O)[C@H](CC(N)=O)NC(=O)[C@H](Cc2ccccc2)NC(=O)[C@H](C)NC(=O)[C@H](CC(=O)O)NC(=O)CNC(=O)[C@H]([C@@H](C)CC)NC1=O)[C@@H](C)CC
notes: also called Ac-IWIAQAhFR$r8IGDAFN$YYA-NH2
B13: SEQ ID NO: 1690 (peptide)
peptide: Ac-IWIAQA[hCha]R[R8]IGDAFN[S5]YYA-NH2
modifications: staple 9-16
SMILES: CC[C@H](C)[C@H](NC(C)=O)C(=O)N[C@@H](Cc1c[nH]c2ccccc12)C(=O)N[C@H](C(=O)N[C@@H](C)C(=O)N[C@@H](CCC(N)=O)C(=O)N[C@@H](C)C(=O)N[C@@H](CCC1CCCCC1)C(=O)N[C@@H](CCCNC(=N)N)C(=O)N[C@]1(C)CCCCCCC=CCCC[C@@](C)(C(=O)N[C@@H](Cc2ccc(O)cc2)C(=O)N[C@@H](Cc2ccc(O)cc2)C(=O)N[C@@H](C)C(N)=O)NC(=O)[C@H](CC(N)=O)NC(=O)[C@H](Cc2ccccc2)NC(=O)[C@H](C)NC(=O)[C@H](CC(=O)O)NC(=O)CNC(=O)[C@H]([C@@H](C)CC)NC1=O)[C@@H](C)CC
notes: also called Ac-IWIAQAhChaR$r8IGDAFN$YYA-NH2

molecular target: BCL-2 (UniProt P10415 1-217, limits assumed); experiment: Ki table, method not stated
Sequence (P10415 1-217 limits assumed): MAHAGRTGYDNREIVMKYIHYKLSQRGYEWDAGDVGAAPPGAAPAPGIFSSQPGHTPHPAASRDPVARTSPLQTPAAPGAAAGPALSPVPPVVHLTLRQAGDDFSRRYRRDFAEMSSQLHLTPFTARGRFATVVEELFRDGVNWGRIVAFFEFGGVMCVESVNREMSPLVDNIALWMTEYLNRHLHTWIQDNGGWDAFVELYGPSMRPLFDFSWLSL

Ki	Binder
88.2 nM	B1
519 nM	B2
804 nM	B3
272 nM	B4
319 nM	B5
878 nM	B6

molecular target: BCL-XL (UniProt Q07817 1-209); experiment: Ki table, method not stated
Sequence (Q07817 1-209): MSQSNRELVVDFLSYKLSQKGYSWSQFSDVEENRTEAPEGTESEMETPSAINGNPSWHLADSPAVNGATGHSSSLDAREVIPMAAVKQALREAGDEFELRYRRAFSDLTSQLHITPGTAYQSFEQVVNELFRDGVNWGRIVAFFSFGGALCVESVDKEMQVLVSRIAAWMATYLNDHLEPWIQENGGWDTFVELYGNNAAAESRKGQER

Ki	Binder
28.8 nM	B1
309 nM	B2
472 nM	B3
243 nM	B4
256 nM	B5
374 nM	B6
386 nM	B7
147 nM	B8
16.9 nM	B9
81.1 nM	B10
110 nM	B11

molecular target: T1, MCL-1 (UniProt Q07820 172-327, limits assumed); experiment: Ki table, method not stated
T1 construct: also called Myeloid cell leukemia 1
T1 sequence (Q07820 172-327 limits assumed): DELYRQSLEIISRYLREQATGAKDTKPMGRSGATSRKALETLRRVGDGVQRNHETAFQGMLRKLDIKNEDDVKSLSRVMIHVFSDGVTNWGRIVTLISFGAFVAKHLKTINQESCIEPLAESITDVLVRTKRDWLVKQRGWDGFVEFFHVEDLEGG

Ki	Binder
73.8 nM	B7
47.7 nM	B8
151 nM	B9
7.5 nM	B12
4.2 nM	B10
40.2 nM	B11
3.8 nM	B13
